Measured values from PMC10993987 (Molecular Cancer Therapeutics, 2023).

T1: His-tagged Fc-fused human IL12Rβ2 (human, UniProt Q99665 24-622)
T1 sequence (looked up): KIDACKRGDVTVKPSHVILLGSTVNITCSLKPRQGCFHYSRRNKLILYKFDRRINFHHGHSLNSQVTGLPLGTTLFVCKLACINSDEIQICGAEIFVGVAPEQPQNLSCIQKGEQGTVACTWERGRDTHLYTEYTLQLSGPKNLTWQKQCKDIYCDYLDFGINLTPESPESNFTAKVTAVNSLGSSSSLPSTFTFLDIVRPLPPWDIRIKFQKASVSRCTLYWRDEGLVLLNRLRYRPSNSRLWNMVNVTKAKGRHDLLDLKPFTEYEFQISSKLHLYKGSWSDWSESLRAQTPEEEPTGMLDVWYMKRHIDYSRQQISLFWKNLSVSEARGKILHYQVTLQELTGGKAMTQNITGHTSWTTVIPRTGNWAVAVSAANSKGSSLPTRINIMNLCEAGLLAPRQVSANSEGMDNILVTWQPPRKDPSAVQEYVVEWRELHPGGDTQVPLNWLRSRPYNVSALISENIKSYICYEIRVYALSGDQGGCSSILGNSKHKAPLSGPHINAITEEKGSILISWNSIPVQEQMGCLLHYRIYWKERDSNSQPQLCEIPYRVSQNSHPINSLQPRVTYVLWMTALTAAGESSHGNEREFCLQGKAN

B1: wild-type recombinant human IL12 (complex)
chain 1: RNLPVATPDPGMFPCLHHSQNLLRAVSNMLQKARQTLEFYPCTSEEIDHEDITKDKTSTVEACLPLELTKNESCLNSRETSFITNGSCLASRKTSFMMALCLSSIYEDLKMYQVEFKTMNAKLLMDPKRQIFLDQNMLAVIDELMQALNFNSETVPQKSSLEEPDFYKTKIKLCILLHAFRIRAVTIDRVMSYLNAS
chain 2: IWELKKDVYVVELDWYPDAPGEMVVLTCDTPEEDGITWTLDQSSEVLGSGKTLTIQVKEFGDAGQYTCHKGGEVLSHSLLLLHKKEDGIWSTDILKDQKEPKNKTFLRCEAKNYSGRFTCWWLTTISTDLTFSVKSSRGSSDPQGVTCGAATLSAERVRGDNKEYEYSVECQEDSACPAAEESLPIEVMVDAVHKLKYENYTSSFFIRDIIKPDPPKNLQLKPLKNSRQVEVSWEYPDTWSTPHSYFSLTFCVQVQGKSKREKKDRVFTDKTSATVICRKNASISVRAQDRYYSSSWSEWASVPCS

Columns and labels:
[1] = biological target: His-tagged Fc-fused human IL12Rβ2 (human) (UniProt Q99665); experiment: SPR
[2] = biological target: T1, His-tagged Fc-fused human IL12Rβ2; experiment: SPR

Molecule | Kd [1] | Kd [2]
proteolytically cleaved XTX301 (active IL12 released from XTX301) (ligand) | 7.97 nM | 
B1 |  | 0.93 nM
